From patent publication US20240376226A1 come the findings set out here.

The test deals with neutravidin (UniProt P02701). The test can be described thus: phage ELISA, neutravidin alone.
neutravidin, sequence (P02701 25-152): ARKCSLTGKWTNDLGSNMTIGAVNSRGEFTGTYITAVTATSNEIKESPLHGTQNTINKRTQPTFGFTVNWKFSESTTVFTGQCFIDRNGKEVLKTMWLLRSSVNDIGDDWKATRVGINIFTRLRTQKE

Take GGLGCNDIDPGEQCIV (peptide, not shown: large carriers) [Phage clone J465D07 displaying Peptide-23]: the NAv bkgd was 0.055.
Then GGEWCLFDPDVPTCQD (peptide, not shown: large carriers) [Phage clone J465F09 displaying Peptide-22], with 0.051; and GGLECFDPEIPEAFCI (peptide, not shown: large carriers) [Phage clone J466C07 displaying Peptide-24], with 0.053.
Under GGQGCGTIADPEPHCW (peptide, not shown: large carriers) [Phage clone J466C02 displaying Peptide-25] stands 0.061; under GGIQCHDPDLPSPCYI (peptide, not shown: large carriers) [Phage clone J465E03 displaying Peptide-21], 0.052; under GGMSDCGDPGVEICTH (peptide, not shown: large carriers) [Phage clone J457A04 displaying Peptide-20], 0.092.
GGLCPINDWEPQDICW (peptide, not shown: large carriers) [Phage clone J467F08 displaying Peptide-27] displayed an NAv bkgd of 0.062.
Then GGLCMIGDWLPGDVCL (peptide, not shown: large carriers) [Phage clone J467D04 displaying Peptide-28], with 0.058; and GGNCHDPDIPAYVLCS (peptide, not shown: large carriers) [Phage clone J479B08 displaying Peptide-26], with 0.084.
Under GGDSVCADPEVPICEI (peptide, not shown: large carriers) [Phage clone J476C07 displaying Peptide-19] stands 0.051.
